Test results taken from the DeepSol protein solubility set.

Assay: soluble on expression in E. coli; label from the status in PepcDB or PDB records

Sequence | soluble on expression in E. coli
MEYKLHNGSGGLCCKGCSRQDKKLNTYDWLADIPGNAEECDMVEVQFKNTRKGYYRNSNKIKLEKGDIVAVEAAPGHDIGVVTLTGRLVPLQMKKANFKTDVEIKRIYRKAKPVDMEKFNEAKAKEHATMIRARQIALNLNLDMKIGDVEYQGDGNKAIFYYIADERVDFRQLIKVLAEAFRVRIEMKQIGARQEAGRIGGIGPCGRELCCATWMTSFVSVSTSAARFQDISLNPQKLAGQCAKLKCCLNYEVDCYVEAQKRLPSKEIELETKDGTFYFFKADILSNHVSYSTDKNFPANLVTISGKRAFEVIAMNKKGMKPDSLLEAEVKQESKKPIDLLEQESLTRFDRNRNNKDGNNGNRNKKKRKGNNDNRPQAQAESGNRPQQPQRGENENRPQPSENGNRGERGDRENRPRNNNNNNRNRGQNQGRNNENRRPERGQNQERPQNPNRPQNQERSQNQERPVNQERNQERNQERPQNRERQPKQERPQNQERPQEQGRQPNQERIPRPERNSNQEKPQNNEKPAQE | not soluble
MEETNAFSAFNQLLMSQNVVSPTKQPMELTNEKLMEFVRNAMQNQQGLPEVPNIIPSALPSMLSQIPTQPMPQMPVVIQTSQMNDVMGDQMLKASPSASSDMSSLDSDVADHPMTMMMQQQQDFQNPLQQLTIDSSANIAAGVNGNTEQRSSGRHETWLECFNTTKFAEYEALLFSVYVAERTDRKYDGWTYFDCLHRLQSKCRYRVRAKKQDEFYIIEEKGVHNHGAVEPVGQAGSHAGLPKTIREIVDRSYNENWPVEARTIKVDEEIQRLGLPENPRLGRQIDNRLAYLRRVKNLHETRRIQDQVNGTMVIKDPVKEAMLQALMEQNGGQLTVGQGFVDQIIANQGIPEMPIKKEEPTQPVESMEMAEQVAKPLAMNPSPDFFQFLQNQKLSHEHEQQQQQLHAAILAQAQAHAQAQAQAQQNLMESQKNIHQ | not soluble
MNEEVRELERLVPAAATGDKTALQRIISIVYPQVLRYARTRLSGGRHPTPEDVAQEICLAVATSIAKFVDQGKPFMAFVYGIASNKVADAHRLYSRDLSNPTDEVPETEIDNDTPESFALLAAGSNRVQQLLDLLGDKPREILTLRVFVGLSAEETAEIVGSTPGAVRVAQHRALATLRKAIEQETGE | not soluble
MAKASSSFVCQNCGAAFNRWQGKCEACGEWNTLVEEAGDNAVPVSIRAKRRGRTFKLESLAGKSNDAPRLPSGMAELDRVTGGGFVRGSVLLVGGDPGIGKSTLLTQATSLMAKAGHRTVYISGEEAIAQVRLRAERLGLASAPVELAAETSVEDIVATLSEGATPKLIVIDSIQTMWTDTVESAPGTVTQVRASAQALIRFAKKTGAAIILVGHVTKDGQIAGPRVVEHMVDAVLSFEGEGSQQFRILRSVKNRFGPTDEIGVFEMTGLGLREVSNPSELFLSERDLGSPGTAVFAGIEGTRPVLVELQALVAPSTLGTPRRAVVGWDSARLSMVLAVLEAHCGVKLSGYDVYFNVAGGLRINEPAADLAAAAALVSSLANAPLPTDAVYFGEISLSGAVRPVAQTPARLKEAAKLGFARAVLPEQTRGEAPADAGLALQSVGGLSSLVADIAARGTRRGDDDGAPRTKAASNATPARFRRQEALEHHHHHH | soluble
MKGITSLGSKWFVEFEKNNVHNVYDRIAEHFTKTRYRIWPGVELFLKQTSPLDTVLDVGCGNGKNLISYRNLFCIGIDRCVPLVKTCKQRQLETAVADILELPFQSEKFDIVLCIAVLHHLCTRERRILAIQELGRVLRPGGSCLLYVWAANENDGKDEVKNTKAREKMRFLDENKQEALIPWVVIDHEKKATQLEKNLKQPSTFTLERYYHLYRQGELEEECLQSNCFHIQHSYYEQSNWCVVLDKKS | soluble
MGHHHHHHSHMAVWIQAQQLQGEALHQMQALYGQHFPIEVRHYLSQWIESQAWDSVDLDNPQENIKATQLLEGLVQELQKKAEHQVGEDGFLLKIKLGHYATQLQNTYDRCPMELVRCIRHILYNEQRLVREANNGSSP | not soluble
